From publication PMC2836571 (Nucleic Acids Research, 2009)

Molecular target: the molecule itself
Test: SEC

B1: ArdB from the E. coli K12 CP4-6 prophage (yafX) (natural protein, E. coli K12/CP4-6 prophage, UniProt P75676 1-152, looked up)
chain: MTTQTQHDLAPANQPEFELTVTPVPDEQRIDFWPQYFGAIPQWLLLEPHIFAWMDRFCEGYSGGIWSFYTLSNGGAFMSPEPDNDETWRLFNCLNGNDAQMSAEAAGIAVCLIAYSHHACRTECDAMTAHYYRLREYAMQHPEAHAILRIID
- stoichiometry N: 2
